Experimental findings from the RNAGym collection of RNA variant scans (doi:10.7554/elife.80360) are described below.

First the molecules themselves.
B1: HDV Ribozyme (parent)
chain: GGCCGGCAUGGUCCCAGCCUCCUCGCUGGCGCCGGCUGGGCAACAUUCCGAGGGGACCGUCCCCUCGGUAAUGGCGAAUGGGACCCA

In the data set the parent is B1. Put plainly: self-cleavage, relative activity (ratio to wild type); higher = more cleavage; co-transcriptional.
In the case of C22G G80C, the self-cleavage came out at 0.136. Next, G29C A42C: 0. Take G34C G59A: the self-cleavage turned out to be 0.143.

With A8U U9G, the self-cleavage was determined as 0.997. In the case of G28A G54C, the self-cleavage was 0.237. A42G C61A: the self-cleavage came out at 0.779. Regarding G54U G55A, the self-cleavage is 1.01.

For the variant G38C G53A, the self-cleavage was 0.313. As for G2C C22A, the self-cleavage is 0.114. With C18U A56U the figure was 0.745. Take G29C C49U: the self-cleavage turned out to be 0.128. For C22G G39A, the self-cleavage was found to be 0.0817.

As to C33A A42C, the self-cleavage is 0.146.

A8G C64G: the self-cleavage came out at 0.7.

G50C C57G: the self-cleavage was found to be 1.12.

Turning to U37G C66U, the self-cleavage came to 0.196. With U47G C86G the figure was 0.95; with C19G C44A, 0; with U20G U47G, 0.185. As to G67U G82A, the self-cleavage turned out to be 0.28. Consider G38U U65G, for which the self-cleavage worked out at 0.233. Regarding G35C C84A, the self-cleavage is 0.271.

A45G G52U: the self-cleavage amounted to 0.731. Turning to G6A G76A, the self-cleavage came out at 0.744. In the case of G6A C24G, the self-cleavage came out at 0.108. On to G34A A83G, for which the self-cleavage is 0.0817. Take U9C G76C: the self-cleavage is 1.11. With C4G C41G, the self-cleavage came out at 0.0437.

For the variant G25U G73U, the self-cleavage is 0.117. For U47A U65A, the self-cleavage stood at 1.07. Regarding G11A C22G, the self-cleavage was found to be 0.0193.

Consider G17A A71U, for which the self-cleavage is 0.499. With G40C G67U the figure was 0.323. On to C24U A43G, for which the self-cleavage is 0.

With C19A U46A, the self-cleavage came to 0.0707. For the variant C19A G28A, the self-cleavage is 0.225. Consider C48A U60A, for which the self-cleavage was determined as 0.918.

As to C18U C48G, the self-cleavage was 0.683.

As to G11U U65A, the self-cleavage amounted to 0.321.

On to G10C C44U, for which the self-cleavage is 0.582. In the case of U27A G55A, the self-cleavage came to 1.08. Consider G10A C26G, for which the self-cleavage is 1.11. For G28C A51C, the self-cleavage was 0. As to C3U C66G, the self-cleavage worked out at 0.758. Consider A8U C66A, for which the self-cleavage is 1.06. As to U46G G81U, the self-cleavage was 0.249. Take A8U C41U: the self-cleavage amounted to 0.594. Next, A8G C62G: 0.489; C13A A77G: 0. With C44A C85G, the self-cleavage worked out at 0.629. With C15A C36A the figure was 0.0692; with U27A C64G, 1.05; with A8U G52C, 0.779. Next, G29A U69G: 0.0475. In the case of C41U C85A, the self-cleavage turned out to be 0.937. As to C14G G28A, the self-cleavage is 0.0415. Consider G39U C63G, for which the self-cleavage was determined as 0.507. With C36G U60G the figure was 0.0723; with U9G C19A, 0.208. Regarding C26G A45G, the self-cleavage is 1.04. In the case of C19A A78U, the self-cleavage was found to be 0.138. With G35C G68A, the self-cleavage was 0.17. Regarding G54U C85U, the self-cleavage was determined as 1.02.

With G35C C61A, the self-cleavage came to 0.283. Next, G11A G52A: 0.38. As to G28U G81A, the self-cleavage turned out to be 0.158. Consider G17U G82U, for which the self-cleavage turned out to be 0.361. Next, G6U U20A: 0.0978; U20G C22U: 0.145. As for G5C G31U, the self-cleavage stood at 0.0405. Take U9G C62U: the self-cleavage amounted to 0.731. G38C G74C: the self-cleavage was 0.148. With A43G C64A, the self-cleavage came to 0.612. For the variant G34A C62U, the self-cleavage came out at 0.106. With G34C G55U, the self-cleavage was 0.113. Turning to G11U G73A, the self-cleavage was determined as 0.138. C15A G54U: the self-cleavage amounted to 0.585. On to C49G G73A, for which the self-cleavage was found to be 0.197. On to G17C C41G, for which the self-cleavage is 0.0354. Turning to A83U C86U, the self-cleavage amounted to 0.95. Regarding C64U U79G, the self-cleavage came to 0.847. In the case of G10C C32G, the self-cleavage was found to be 0.0773. Next, G10C G50C: 0.923. Next, C3U C13U: 0.509; U27A C75G: 0.095; G5U G59A: 0.529. With U12C G76A, the self-cleavage was 0.344. For C14A U47G, the self-cleavage was 0.519. Next, C13A G31C: 0; G1C C18U: 0.0437.

As for C62U C75U, the self-cleavage came out at 0.173. For the variant C30G C57U, the self-cleavage is 0.0332.

For G17U C57A, the self-cleavage was determined as 0.689. With G31U G38C the figure was 0.148; with G31A G59A, 0.531; with A16U G55U, 1.09. With U20C G34C, the self-cleavage stood at 0. Regarding G10C G11C, the self-cleavage turned out to be 0.462. Next, G55U A87C: 1.01. On to A16U C48A, for which the self-cleavage was found to be 1.07.

Regarding C36A G39A, the self-cleavage came to 0.113. With G39U C58U the figure was 0.716; with C21U G25A, 0.0997. In the case of U27C G52A, the self-cleavage came out at 0.884. As for A42U G50A, the self-cleavage amounted to 0.383.

Consider C18G G55A, for which the self-cleavage was found to be 0.145. For the variant G54U G74C, the self-cleavage came to 0.182. Consider C24G G38U, for which the self-cleavage is 0.0268. Take A56U C85U: the self-cleavage came out at 1.12.

Take C3U G25C: the self-cleavage was 0.113.

With C49U G54A, the self-cleavage was found to be 1.02. With C19U C84U the figure was 0.0811; with C22G U79G, 0.0665; with G35U A51G, 0.356. Next, G5C G81C: 0; U65G G76A: 0.95; G39C G52C: 0.309. Consider A16U C63U, for which the self-cleavage was found to be 1.14. C36U C41G: the self-cleavage was found to be 0.45.

Take C36A G68C: the self-cleavage was determined as 0.235. With U9A A43U the figure was 0.675. In the case of C61U A87C, the self-cleavage worked out at 0.784. On to G5U G76C, for which the self-cleavage came to 0.227. Next, U9C A87G: 1.12; G10A A71C: 0.456; U12C G35C: 0.0923. In the case of A8C G17U, the self-cleavage stood at 0.287. On to U12A G53U, for which the self-cleavage is 0.318. Turning to G10U C26A, the self-cleavage came to 0.678. For A51G G59U, the self-cleavage was determined as 1.1. Turning to G6U A42G, the self-cleavage is 0.214. With C18G C62G the figure was 0; with C57G G74C, 0.446. As for C33U G38A, the self-cleavage was found to be 0.172.

With C32A G82A, the self-cleavage came out at 0.0361.

For the variant G1U C64A, the self-cleavage amounted to 0.453. With G34U U46C, the self-cleavage was determined as 0.161. In the case of C48G C86G, the self-cleavage amounted to 1.11. In the case of C21U U23A, the self-cleavage worked out at 0.173. As to C15A G82C, the self-cleavage was found to be 0.415. Next, C62U U72C: 0.636. Take C26A C61U: the self-cleavage was determined as 0.974. Next, G6U C15G: 0.0875; A8G C85G: 0.895.

Regarding A51C C86A, the self-cleavage was 0.872.

Take U20A C26G: the self-cleavage worked out at 0. With G2C G6C the figure was 0.0386; with A16G C32G, 0.145.

As for C13G G25A, the self-cleavage turned out to be 0. With G76A A87C, the self-cleavage is 1.03. As to U20C U46G, the self-cleavage amounted to 0. Next, C14A C41G: 0.554; A42G A70C: 0.798; A51G C57G: 0.916. As for U20A G31C, the self-cleavage is 0.0475.

As to A51U A70C, the self-cleavage is 0.886. With U9C A78C the figure was 0.128; with G5A U20G, 0.185; with G5U C22U, 0.158. Turning to U47A G81U, the self-cleavage came to 0.219. Take G54C: the self-cleavage was determined as 0.98. Regarding A42U A70U, the self-cleavage was 0.312. With C22A U27C, the self-cleavage turned out to be 0.317. As for A77G C86G, the self-cleavage was 0.886.

With U20C C61U, the self-cleavage stood at 0.0723. Next, A56U A77C: 0.341; A43U C84A: 0.346.
